Patent US20080044419A1, “Treatment of T Cell Mediated Diseases by Inhibition of Fgfr3” (Fibron Ltd., priority 2003, published 2008)
Residue numbers refer to the chain shown, from its start.

B1: PRO-026 Fab-dHLX (protein)
VH: QVQLVQSGAEVKKPGASVKVSCKASGYTFTSYYMHWVRQAPGQGLEWMGWINPNSGGTNYAQKFQGRVTMTRDTSISTAYMELSSLRSEDTAVYYCARGYWYAYFTYINYGYFDNWGQGTLVTVSS
VL: DIALTQPASVSGSPGQSITISCTGTSSDVGGYNYVSWYQQHPGKAPKLMIYDVSNRPSGVSNRFSGSKSGNTASLTISGLQAEDEADYYCQSYDNNSDVVFGGGTKLTVLGQ
B2: PRO-055 Fab-dHLX (protein)
VH: QVQLVQSGAEVKKPGASVKVSCKASGYTFTSYYMHWVRQAPGQGLEWMGWINPNSGGTNYAQKFQGRVTMTRDTSISTAYMELSSLRSEDTAVYYCARSMNSTMYWYLRRVLFDHWGQGTLVTVSS
VL: B1 VL with N95M, N96Y, S97N, D98Y, V99I
B3: PRO-026 (Fab, V domains shown)
VH: B1 VH
VL: DIALTQPASVSGSPGQSITISCTGTSSDVGGYNYVSWYQQHPGKAPKLMIYDVSNRPSGVSNRFSGSKSGNTASLTISGLQAEDEADYYCQSYDNNSDVVFGGGTKLTVLG
B4: PRO-001 Fab-dHLX (protein)
VH: QVQLQQSGPGLVKPSQTLSLTCAISGDSVSSNSAAWNWIRQSPGRGLEWLGRTYYRSKWYNDYAVSVKSRITINPDTSKNQFSLQLNSVTPEDTAVYYCARSYYPDFDYWGQGTLVTVSS
VL: DIELTQPPSVSVAPGQTARISCSGDALGDKYASWYQQKPGQAPVLVIYDDSDRPSGIPERFSGSNSGNTATLTISGTQAEDEADYYCQSYDGPDLWVFGGGTKLTVLGQ
B5: PRO-001 (Fab, V domains shown)
VH: B4 VH
VL: DIELTQPPSVSVAPGQTARISCSGDALGDKYASWYQQKPGQAPVLVIYDDSDRPSGIPERFSGSNSGNTATLTISGTQAEDEADYYCQSYDGPDLWVFGGGTKLTVLG
B6: PRO-002 Fab-dHLX (protein)
VH: QVQLVQSGAEVKKPGASVKVSCKASGYTFTSYYMHWVRQAPGQGLEWMGWINPNSGGTNYAQKFQGRVTMTRDTSISTAYMELSSLRSEDTAVYYCARDFLGYEFDYWGQGTLVTVSS
VL: B4 VL with G92Y, P93S, D94A, L95D, W96Y
B7: PRO-024 Fab-dHLX (protein)
VH: QVQLVQSGAEVKKPGSSVKVSCKASGGTFSSYAISWVRQAPGQGLEWMGGIIPIFGTANYAQKFQGRVTITADESTSTAYMELSSLRSEDTAVYYCARVNHWTYTFDYWGQGTLVTVSS
VL: not shown
B8: PRO-054 Fab-dHLX (protein)
VH: QVQLVQSGAEVKKPGASVKVSCKASGYTFTSYYMHWVRQAPGQGLEWMGWINPNSGGTNYAQKFQGRVTMTRDTSISTAYMELSSLRSEDTAVYYCARNMAYTNYQYVNMPHFDYWGQGTLVTVSS
VL: DIELTQPPSVSVAPGQTARISCSGDALGDKYASWYQQKPGQAPVLVIYDDSDRPSGIPERFSGSNSGNTATLTISGTQAEDEADYYCQSYDYFKLVFGGGTKLTVLGQ
B9: PRO-012 Fab-dHLX (protein)
VH: QVQLKESGPALVKPTQTLTLTCTFSGFSLSTSGVGVGWIRQPPGKALEWLALIDWDDDKYYSTSLKTRLTISKDTSKNQVVLTMTNMDPVDTATYYCARYHSWYEMGYYGSTVGYMFDYWGQGTLVTVSS
VL: DIELTQPPSVSVAPGQTARISCSGDALGDKYASWYQQKPGQAPVLVIYDDSDRPSGIPERFSGSNSGNTATLTISGTQAEDEADYYCQSYDFDFAVFGGTKLTVLGQ
B10: PRO-021 Fab-dHLX (protein)
VH: QVQLVQSGAEVKKPGSSVKVSCKASGGTFSSYAISWVRQAPGQGLEWMGGIIPIFGTANYAQKFQGRTITADESTSTAYMELSSLRSEDTAVYYCARDNWFKPFSDVWGQGTLVTVSS
VL: not shown
B11: PRO-029 Fab-dHLX (protein)
VH: QVQLVQSGAEVKKPGASVKVSCKASGYTFTSYYMHWVRQAPGQGLEWMGWINPNSGGTNYAQKFQGRVTMTRDTSISTAYMELSSLRSEDTAVYYCARTWQYSYFYYLDGGYYFDIWGQGTLVTVSS
VL: DIVLTQSPATLSLSPGERATLSCRASQSVSSSYLAWYQQKPGQAPRLLIYGASSRATGVPARFSGSGSGTDFTLTISSLEPEDFATYYCQQTNNAPVTFGQGTKVEIKRT
B12: PRO-029 (Fab, V domains shown)
VH: B11 VH
VL: DIVLTQSPATLSLSPGERATLSCRASQSVSSSYLAWYQQKPGQAPRLLIYGASSRATGVPARFSGSGSGTDFTLTISSLEPEDFATYYCQQTNNAPVTFGQGTKVEIKR
B13: PRO-002 (Fab, V domains shown)
VH: B6 VH
VL: B5 VL with G92Y, P93S, D94A, L95D, W96Y

Experiments:
[1] = target: fibroblast growth factor receptor 3 (FGFR3), P22607; experiment: cell-based or functional assay
[2] = target: fibroblast growth factor receptor 3 (FGFR3) (UniProt P22607); experiment: FACS
[3] = target: fibroblast growth factor receptor 3 (FGFR3) (UniProt P22607); experiment: BIAcore
[4] = target: fibroblast growth factor receptor 3 (FGFR3) (UniProt P22607); experiment: not stated (BIAcore presumably)

Row | Binder | IC50 FGFR3 (FGF9), FDCP-FGFR3 proliferation assay performed with FGF9 [1] | Kd [2] | other results
1 | B1 | 70 nM |  | 
2 | B2 | 34 nM |  | 
3 | B3 |  | 1.4 nM | 
4 | B4 | 19 nM |  | 
5 | B5 |  | 0.7 nM | Kd [3]: 1.5 nM; koff [4]: 0.00071 s⁻¹
6 | B6 | 360 nM |  | 
7 | B7 | 70 nM |  | 
8 | B8 | 45 nM |  | 
9 | B9 | 58 nM |  | 
10 | B10 | 50 nM |  | 
11 | B11 | 20 nM |  | 
12 | B12 |  | < 1 nM | 
13 | B13 |  | 43 nM | 
